We go through three compounds from article PMC11094781 (Protein Science : A Publication of the Protein Society, 2024).

One experiment deals with T1, TkTusA (Thioalkalivibrio sp. K90mix, UniProt D3SF79).
T1 sequence (D3SF79 2-76): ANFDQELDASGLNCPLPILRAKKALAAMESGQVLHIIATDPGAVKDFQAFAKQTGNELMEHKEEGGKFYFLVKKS
Nature of the experiment: MALDI-TOF mass shift. The experiment is classed as biochemical. The note with it: […] tetrathionate, […] Tris-HCl pH […]; covalent.

Experiment [1] deals with DsrE3B from Thioalkalivibrio sp. K90mix (Thioalkalivibrio sp. K90mix). Nature of the experiment: SEC. (In general: In gel filtration, larger molecules generally elute earlier.)
Experiment [2] deals with DsrE3C from Hyphomicrobium denitrificans (Hyphomicrobium denitrificans). The experiment can be described thus: SEC.

As for `O=S(=O)(O)SSS(=O)(=O)O` [tetrathionate], the MALDI-TOF mass shift result at TkTusA is on record as “TusA proteins from bacteria that were examined in this study displayed reaction with tetrathionate”.

On to “DsrE3B from Thioalkalivibrio sp. K90mix (natural protein)”, for which the stoichiometry N (commonly the number of molecules, sites or subunits per partner or assembly) in experiment [1] came out at 3.

The compound “DsrE3C from Hyphomicrobium denitrificans (natural protein)” showed a stoichiometry N in experiment [2] of 3.
